Measurements taken from article PMC9482650, “Quantitative fragmentomics allow affinity mapping of interactomes” (Nature Communications, 2022).

T1: TJP3_3, O95049
T1 sequence (O95049 375-456, limits assumed, looked up): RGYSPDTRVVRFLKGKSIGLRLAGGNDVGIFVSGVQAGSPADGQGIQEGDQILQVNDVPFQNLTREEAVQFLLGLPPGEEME

T2: CARD11, Q9BXL7
T2 sequence (Q9BXL7 662-765, limits assumed, looked up): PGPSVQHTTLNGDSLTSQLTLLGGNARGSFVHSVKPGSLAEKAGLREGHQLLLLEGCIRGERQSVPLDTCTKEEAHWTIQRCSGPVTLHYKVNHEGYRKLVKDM

T3: SNTG1, Q9NSN8
T3 sequence (Q9NSN8 52-150, limits assumed, looked up): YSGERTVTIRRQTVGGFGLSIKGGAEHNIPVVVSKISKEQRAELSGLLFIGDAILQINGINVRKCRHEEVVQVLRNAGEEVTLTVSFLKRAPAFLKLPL

T4: FRMPD1, Q5SYB0
T4 sequence (Q5SYB0 52-145, limits assumed, looked up): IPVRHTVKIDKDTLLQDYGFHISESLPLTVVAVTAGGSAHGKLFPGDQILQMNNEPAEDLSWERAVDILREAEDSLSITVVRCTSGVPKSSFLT

T5: SNTA1, Q13424
T5 sequence (Q13424 82-180, limits assumed, looked up): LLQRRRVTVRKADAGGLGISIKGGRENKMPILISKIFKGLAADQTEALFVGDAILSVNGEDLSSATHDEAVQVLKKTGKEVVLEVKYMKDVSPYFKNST

T6: GRIP1_2, Q9Y3R0
T6 sequence (Q9Y3R0 145-248, limits assumed, looked up): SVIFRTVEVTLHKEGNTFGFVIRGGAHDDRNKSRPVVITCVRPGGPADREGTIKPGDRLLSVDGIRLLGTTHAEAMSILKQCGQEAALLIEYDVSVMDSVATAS

T7: SIPA1L2, Q9P2F8
T7 sequence (Q9P2F8 945-1036, limits assumed, looked up): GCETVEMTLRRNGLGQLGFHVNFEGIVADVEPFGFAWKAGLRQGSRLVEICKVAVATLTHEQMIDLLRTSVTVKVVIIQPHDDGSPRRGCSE

T8: NHERF3_3, Q5T2W1
T8 sequence (Q5T2W1 238-333, limits assumed, looked up): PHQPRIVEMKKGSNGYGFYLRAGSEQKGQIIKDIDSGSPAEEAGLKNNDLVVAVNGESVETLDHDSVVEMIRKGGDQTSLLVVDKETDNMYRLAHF

T9: HTRA4, P83105
T9 sequence (P83105 378-476, limits assumed, looked up): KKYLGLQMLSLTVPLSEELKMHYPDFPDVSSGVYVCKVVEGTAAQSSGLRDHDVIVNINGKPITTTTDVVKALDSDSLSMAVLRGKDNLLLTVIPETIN

T10: PDZD2_2, O15018
T10 sequence (O15018 329-429, limits assumed, looked up): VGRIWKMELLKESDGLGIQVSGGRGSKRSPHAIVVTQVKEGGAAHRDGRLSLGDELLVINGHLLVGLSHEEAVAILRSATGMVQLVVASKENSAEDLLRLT

T11: NHERF3_4, Q5T2W1
T11 sequence (Q5T2W1 373-468, limits assumed, looked up): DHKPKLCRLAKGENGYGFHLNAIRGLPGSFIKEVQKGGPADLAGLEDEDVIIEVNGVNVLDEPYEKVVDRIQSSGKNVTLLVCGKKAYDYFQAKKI


Columns and labels:
Assay in all cases: holdup assay
Design in all cases: key: below the threshold = too weak to quantify, mostly under pKd 3.1 to 4
Conditions in all cases: plain residues with an end cap or a label only (N-terminal biotin on a linker: ado-ado)
TJP3_3, O95049 = target: T1, TJP3_3, O95049
MAGI2_4, Q86UL8 = target: MAGI2_4, Q86UL8
GIPC2, Q8TF65 = target: GIPC2, Q8TF65
CARD11, Q9BXL7 = target: T2, CARD11, Q9BXL7
ARHGEF12, Q9NZN5-2 = target: ARHGEF12, Q9NZN5-2
SNTG1, Q9NSN8 = target: T3, SNTG1, Q9NSN8
MAGI2_5, Q86UL8 = target: MAGI2_5, Q86UL8
LNX1_3, Q8TBB1 = target: LNX1_3, Q8TBB1
FRMPD1, Q5SYB0 = target: T4, FRMPD1, Q5SYB0
Inadl_6, Q8NI35 = target: Inadl_6, Q8NI35
HTRA1, Q92743 = target: HTRA1, Q92743
SNTA1, Q13424 = target: T5, SNTA1, Q13424
PTPN3, P26045 = target: PTPN3, P26045
DLG1_3, Q12959 = target: DLG1_3, Q12959
GRIP2_4, Q9C0E4 = target: GRIP2_4, Q9C0E4
GRIP1_2, Q9Y3R0 = target: T6, GRIP1_2, Q9Y3R0
SCRIB_2, Q14160 = target: SCRIB_2, Q14160
NHERF4_2, Q86UT5 = target: NHERF4_2, Q86UT5
Inadl_5, Q8NI35 = target: Inadl_5, Q8NI35
SIPA1L2, Q9P2F8 = target: T7, SIPA1L2, Q9P2F8
MAGI2_3, Q86UL8 = target: MAGI2_3, Q86UL8
NHERF3_3, Q5T2W1 = target: T8, NHERF3_3, Q5T2W1
LDB3, O75112 = target: LDB3, O75112
HTRA4, P83105 = target: T9, HTRA4, P83105
PICK1, Q9NRD5 = target: PICK1, Q9NRD5
PDZD2_2, O15018 = target: T10, PDZD2_2, O15018
NHERF3_4, Q5T2W1 = target: T11, NHERF3_4, Q5T2W1

GRIP2_4, Q9C0E4, sequence (Q9C0E4 446-548): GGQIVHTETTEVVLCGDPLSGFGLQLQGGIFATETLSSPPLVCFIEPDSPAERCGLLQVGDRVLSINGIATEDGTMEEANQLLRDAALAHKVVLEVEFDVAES
MAGI2_4, Q86UL8, sequence (Q86UL8 772-865): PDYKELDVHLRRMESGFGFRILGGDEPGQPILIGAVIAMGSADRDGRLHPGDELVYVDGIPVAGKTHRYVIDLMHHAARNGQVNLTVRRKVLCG
Inadl_6, Q8NI35, sequence (Q8NI35 1058-1167): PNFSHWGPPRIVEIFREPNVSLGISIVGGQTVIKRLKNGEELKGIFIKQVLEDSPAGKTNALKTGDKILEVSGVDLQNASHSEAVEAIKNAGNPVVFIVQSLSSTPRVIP
PICK1, Q9NRD5, sequence (Q9NRD5 17-115): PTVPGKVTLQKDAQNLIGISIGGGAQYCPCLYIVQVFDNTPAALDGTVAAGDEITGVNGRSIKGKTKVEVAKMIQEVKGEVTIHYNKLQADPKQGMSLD
HTRA1, Q92743, sequence (Q92743 360-477): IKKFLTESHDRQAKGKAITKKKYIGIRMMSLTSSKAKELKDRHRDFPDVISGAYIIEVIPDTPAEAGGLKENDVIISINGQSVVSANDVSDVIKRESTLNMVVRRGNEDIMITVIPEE
PTPN3, P26045, sequence (P26045 505-587): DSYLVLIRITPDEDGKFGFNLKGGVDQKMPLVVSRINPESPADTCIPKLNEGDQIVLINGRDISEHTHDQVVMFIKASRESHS
GIPC2, Q8TF65, sequence (Q8TF65 112-203): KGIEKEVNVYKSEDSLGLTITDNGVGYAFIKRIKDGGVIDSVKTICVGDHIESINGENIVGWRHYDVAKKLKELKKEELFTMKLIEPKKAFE
MAGI2_5, Q86UL8, sequence (Q86UL8 915-1017): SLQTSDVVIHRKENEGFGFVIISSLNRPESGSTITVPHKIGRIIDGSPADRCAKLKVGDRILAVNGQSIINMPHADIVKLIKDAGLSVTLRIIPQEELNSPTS
DLG1_3, Q12959, sequence (Q12959 457-571): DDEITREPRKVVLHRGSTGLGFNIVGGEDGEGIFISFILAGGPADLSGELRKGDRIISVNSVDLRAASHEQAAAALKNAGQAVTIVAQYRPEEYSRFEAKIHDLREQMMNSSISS
LDB3, O75112, sequence (O75112 1-94): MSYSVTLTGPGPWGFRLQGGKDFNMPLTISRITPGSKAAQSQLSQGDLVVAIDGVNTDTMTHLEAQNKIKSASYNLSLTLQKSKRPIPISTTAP
ARHGEF12, Q9NZN5-2, sequence (Q9NZN5 other isoform, or with tags, fused parts or gaps): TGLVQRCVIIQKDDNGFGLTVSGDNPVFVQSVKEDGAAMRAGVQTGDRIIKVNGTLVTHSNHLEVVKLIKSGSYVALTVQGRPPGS
SCRIB_2, Q14160, sequence (Q14160 857-960): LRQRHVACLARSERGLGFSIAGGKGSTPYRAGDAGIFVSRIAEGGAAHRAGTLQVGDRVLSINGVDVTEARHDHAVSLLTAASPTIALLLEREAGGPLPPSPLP
MAGI2_3, Q86UL8, sequence (Q86UL8 600-682): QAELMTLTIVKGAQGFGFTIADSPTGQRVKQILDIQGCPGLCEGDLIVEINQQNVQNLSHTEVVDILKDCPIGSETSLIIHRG
Inadl_5, Q8NI35, sequence (Q8NI35 673-780): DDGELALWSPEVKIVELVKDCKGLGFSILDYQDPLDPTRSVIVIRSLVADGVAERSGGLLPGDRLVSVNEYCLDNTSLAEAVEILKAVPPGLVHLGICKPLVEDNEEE
LNX1_3, Q8TBB1, sequence (Q8TBB1 500-596): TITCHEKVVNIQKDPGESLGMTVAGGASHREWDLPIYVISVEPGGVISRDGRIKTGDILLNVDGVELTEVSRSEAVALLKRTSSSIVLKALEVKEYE
NHERF4_2, Q86UT5, sequence (Q86UT5 220-308): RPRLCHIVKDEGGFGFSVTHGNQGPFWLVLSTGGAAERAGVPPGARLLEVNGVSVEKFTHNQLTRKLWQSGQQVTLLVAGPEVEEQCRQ

Binder | pKd (TJP3_3, O95049) | pKd (MAGI2_4, Q86UL8) | pKd (GIPC2, Q8TF65) | pKd (CARD11, Q9BXL7) | pKd (ARHGEF12, Q9NZN5-2) | pKd (SNTG1, Q9NSN8) | pKd (MAGI2_5, Q86UL8) | pKd (LNX1_3, Q8TBB1) | pKd (FRMPD1, Q5SYB0) | pKd (Inadl_6, Q8NI35) | pKd (HTRA1, Q92743) | pKd (SNTA1, Q13424) | pKd (PTPN3, P26045) | pKd (DLG1_3, Q12959) | pKd (GRIP2_4, Q9C0E4) | pKd (GRIP1_2, Q9Y3R0) | pKd (SCRIB_2, Q14160) | pKd (NHERF4_2, Q86UT5) | pKd (Inadl_5, Q8NI35) | pKd (SIPA1L2, Q9P2F8) | further results
KKMPSIESDV [GRIN2A, Q12879] | below the threshold | below the threshold | 3.84 | below the threshold | 3.69 | 4.89 | below the threshold | below the threshold | below the threshold | below the threshold | below the threshold | 4.59 | 4.44 | below the threshold | below the threshold | below the threshold | 4.43 | below the threshold | below the threshold | below the threshold | pKd (MAGI2_3, Q86UL8): below the threshold; pKd (NHERF3_3, Q5T2W1): below the threshold; pKd (LDB3, O75112): below the threshold; pKd (HTRA4, P83105): below the threshold; pKd (PICK1, Q9NRD5): below the threshold; pKd (PDZD2_2, O15018): 4.91; pKd (NHERF3_4, Q5T2W1): below the threshold
PEYLGLDVPV [ERBB2, P04626] | below the threshold | below the threshold | below the threshold | below the threshold | below the threshold | 3.55 | below the threshold | below the threshold | below the threshold | below the threshold | 3.59 | 3.61 | below the threshold | below the threshold | below the threshold | below the threshold | below the threshold | below the threshold | below the threshold | below the threshold | pKd (MAGI2_3, Q86UL8): 3.5; pKd (NHERF3_3, Q5T2W1): below the threshold; pKd (LDB3, O75112): below the threshold; pKd (HTRA4, P83105): 3.98; pKd (PICK1, Q9NRD5): 4.25; pKd (PDZD2_2, O15018): below the threshold; pKd (NHERF3_4, Q5T2W1): 3.59
DDENIRTSDV [PLEKHA2, Q9HB19] | below the threshold | below the threshold | 3.84 | below the threshold | 4.25 | 4.88 | below the threshold | below the threshold | below the threshold | below the threshold | below the threshold | 5.11 | 4.6 | below the threshold | below the threshold | below the threshold | 3.75 | below the threshold | below the threshold | below the threshold | pKd (MAGI2_3, Q86UL8): below the threshold; pKd (NHERF3_3, Q5T2W1): below the threshold; pKd (LDB3, O75112): below the threshold; pKd (HTRA4, P83105): below the threshold; pKd (PICK1, Q9NRD5): below the threshold; pKd (PDZD2_2, O15018): 5.74; pKd (NHERF3_4, Q5T2W1): below the threshold
AKPSRISTVV [IQSEC2, Q5JU85] | below the threshold | 4.68 | below the threshold | below the threshold | 4.75 | below the threshold | 4.44 | below the threshold | below the threshold | below the threshold | 4.5 | 4.12 | 4.21 | below the threshold | below the threshold | below the threshold | below the threshold | below the threshold | 4.21 | below the threshold | pKd (MAGI2_3, Q86UL8): 3.55; pKd (NHERF3_3, Q5T2W1): below the threshold; pKd (LDB3, O75112): below the threshold; pKd (HTRA4, P83105): below the threshold; pKd (PICK1, Q9NRD5): 4.14; pKd (PDZD2_2, O15018): 4.29; pKd (NHERF3_4, Q5T2W1): 3.73
TSQESEDTYL [TBC1D10A, Q9BXI6] | below the threshold | below the threshold | below the threshold | below the threshold | 4.02 | below the threshold | below the threshold | below the threshold | below the threshold | 3.78 | 4.7 | 3.91 | 4.88 | below the threshold | below the threshold | below the threshold | below the threshold | below the threshold | below the threshold | below the threshold | pKd (MAGI2_3, Q86UL8): below the threshold; pKd (NHERF3_3, Q5T2W1): 3.59; pKd (LDB3, O75112): below the threshold; pKd (HTRA4, P83105): 3.75; pKd (PICK1, Q9NRD5): 4.11; pKd (PDZD2_2, O15018): 4.49; pKd (NHERF3_4, Q5T2W1): 3.48
